Molecular target: CENP-T (Homo sapiens, UniProt Q96BT3)
Test: SW-FCCS

Chain of CENP-T (Q96BT3 whole entry): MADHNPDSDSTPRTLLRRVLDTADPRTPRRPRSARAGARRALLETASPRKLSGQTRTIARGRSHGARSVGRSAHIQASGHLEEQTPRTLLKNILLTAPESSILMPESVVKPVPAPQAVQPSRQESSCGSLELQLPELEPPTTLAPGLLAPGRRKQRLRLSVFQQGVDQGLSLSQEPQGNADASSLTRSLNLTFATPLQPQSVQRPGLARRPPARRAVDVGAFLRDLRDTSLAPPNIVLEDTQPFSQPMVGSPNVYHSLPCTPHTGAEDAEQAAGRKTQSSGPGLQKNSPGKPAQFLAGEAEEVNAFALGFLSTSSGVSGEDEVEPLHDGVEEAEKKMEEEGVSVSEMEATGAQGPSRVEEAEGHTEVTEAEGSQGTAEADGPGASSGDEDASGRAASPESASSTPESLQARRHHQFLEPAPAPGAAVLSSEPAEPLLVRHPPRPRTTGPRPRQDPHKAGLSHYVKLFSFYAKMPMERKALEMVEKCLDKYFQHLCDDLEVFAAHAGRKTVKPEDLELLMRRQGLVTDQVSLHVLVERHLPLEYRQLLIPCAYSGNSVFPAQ

B1: Spc24 (protein)
chain: MAAFRDIEEVSQGLLSLLGANRAEAQQRRLLGRHEQVVERLLETQDGAEKQLREILTMEKEVAQSLLNAKEQVHQGGVELQQLEAGLQEAGEEDTRLKASLLQLTRELEELKEIEADLERQEKEVDEDTTVTIPSAVYVAQLYHQVSKIEWDYECEPGMVKGIHHGPSVAQPIHLDSTQLSRKFISDYLWSLVDTEW
In the case of B1, the Kd is reported as 1800 nM.
